Measured values published in paper PMC3134622 (Biochemistry, 2011).

Biological target: T1, GST-PBD46 (peptide derivative of p21-activated serine/threonine kinase, PAK Binding Domain 46)
T1 chain: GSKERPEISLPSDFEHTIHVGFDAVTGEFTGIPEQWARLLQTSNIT
Test: pull-down

B1: Cdc42 wild type (natural protein)
chain: not shown
ΔI (pull-down band intensity, wild type:PBD46 relative to T35A:PBD46): 4.2 ± 0.59
